Legend:
Pol λ WT = Pol λ WT (Homo sapiens, UniProt Q9UGP5 1-575); assay: EMSA; 40 or 200 nM Pol λ; EMSA: 50 mM Tris-HCl pH 7.5, 100 mM KCl, 2.5 mM MgCl2, 1 mM DTT, 4% glycerol, 0.05% Triton X-100, 0.1 mg/ml BSA, 10-20 nM DNA, 30 min at 25 °C; 4-5% native PAGE, 0.5x TBE, 4 °C; settings: protein: recombinant; tags: FLAG; label: 5' IRDye 700 on one strand; 5-nt gap
PAXX (cleaved) = PAXX (cleaved) (Homo sapiens, UniProt Q9BUH6 1-204); assay: EMSA; 0.5 µM PAXX; EMSA: 50 mM Tris-HCl pH 7.5, 100 mM KCl, 2.5 mM MgCl2, 1 mM DTT, 4% glycerol, 0.05% Triton X-100, 0.1 mg/ml BSA, 10-20 nM DNA, 30 min at 25 °C; 4-5% native PAGE, 0.5x TBE, 4 °C; settings: protein: recombinant; tags: GST tag cleaved (PreScission); chain copies: 2; label: 5' IRDye 700 on one strand; 5-nt gap

B1: 5nt-gapped dsDNA 30-mer (dsDNA)
DNA 1: ACTGGCCGTCGTTCTATTGTACTCACTGTGATC
DNA 2: GATCACAGTGAGTAC
DNA 3: AACGACGGCCAGT
binding result (Pol λ WT): binds | binding result (PAXX (cleaved)): no binding

Reference: article PMC6155126
